Results reported in publication PMC3829045.
pKd: −log10 of the molar value.

Columns and labels:
mouse sFlt-1-Fc (mouse) = mouse sFlt-1-Fc (mouse) (UniProt P35969); experiment: ELISA
VEGFR-2 (Homo sapiens) = VEGFR-2 (Homo sapiens) (UniProt P35968); conditions: cited from earlier work
Chain of UniProt P35968 (P35968 20-1356): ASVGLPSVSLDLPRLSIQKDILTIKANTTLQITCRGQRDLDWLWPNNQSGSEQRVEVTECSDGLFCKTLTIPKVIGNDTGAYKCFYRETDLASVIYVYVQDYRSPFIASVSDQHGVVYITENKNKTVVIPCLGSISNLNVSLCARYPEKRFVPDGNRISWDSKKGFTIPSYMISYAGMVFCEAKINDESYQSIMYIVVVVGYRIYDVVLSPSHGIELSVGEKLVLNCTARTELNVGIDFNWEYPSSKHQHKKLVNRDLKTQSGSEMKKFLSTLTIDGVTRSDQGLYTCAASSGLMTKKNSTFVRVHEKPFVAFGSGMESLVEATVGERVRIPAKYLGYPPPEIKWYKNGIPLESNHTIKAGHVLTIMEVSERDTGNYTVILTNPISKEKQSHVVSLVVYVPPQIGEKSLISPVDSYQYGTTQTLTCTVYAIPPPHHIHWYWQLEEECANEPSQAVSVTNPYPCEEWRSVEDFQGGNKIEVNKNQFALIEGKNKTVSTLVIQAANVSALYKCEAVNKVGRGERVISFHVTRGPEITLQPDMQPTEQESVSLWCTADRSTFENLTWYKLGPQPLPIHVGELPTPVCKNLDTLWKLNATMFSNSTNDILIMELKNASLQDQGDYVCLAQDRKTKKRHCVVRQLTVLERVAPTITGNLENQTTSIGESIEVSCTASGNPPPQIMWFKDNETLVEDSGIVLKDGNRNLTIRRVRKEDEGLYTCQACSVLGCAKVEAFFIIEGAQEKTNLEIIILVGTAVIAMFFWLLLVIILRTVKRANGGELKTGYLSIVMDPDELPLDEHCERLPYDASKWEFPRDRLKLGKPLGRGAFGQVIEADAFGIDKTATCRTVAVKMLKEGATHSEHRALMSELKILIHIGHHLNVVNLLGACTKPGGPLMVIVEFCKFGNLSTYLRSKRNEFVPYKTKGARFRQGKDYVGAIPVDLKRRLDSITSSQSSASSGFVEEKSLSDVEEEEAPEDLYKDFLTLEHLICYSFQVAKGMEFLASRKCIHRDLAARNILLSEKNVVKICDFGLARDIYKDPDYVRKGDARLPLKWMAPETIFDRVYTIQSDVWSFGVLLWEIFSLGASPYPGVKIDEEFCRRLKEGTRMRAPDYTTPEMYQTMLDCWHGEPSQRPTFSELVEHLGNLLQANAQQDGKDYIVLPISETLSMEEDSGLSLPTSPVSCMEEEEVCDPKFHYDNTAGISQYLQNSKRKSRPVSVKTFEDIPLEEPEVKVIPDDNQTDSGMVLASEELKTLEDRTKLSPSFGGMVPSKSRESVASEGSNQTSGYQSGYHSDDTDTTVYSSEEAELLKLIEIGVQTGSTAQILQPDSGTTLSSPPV

Chain of UniProt P35969 (P35969 23-758): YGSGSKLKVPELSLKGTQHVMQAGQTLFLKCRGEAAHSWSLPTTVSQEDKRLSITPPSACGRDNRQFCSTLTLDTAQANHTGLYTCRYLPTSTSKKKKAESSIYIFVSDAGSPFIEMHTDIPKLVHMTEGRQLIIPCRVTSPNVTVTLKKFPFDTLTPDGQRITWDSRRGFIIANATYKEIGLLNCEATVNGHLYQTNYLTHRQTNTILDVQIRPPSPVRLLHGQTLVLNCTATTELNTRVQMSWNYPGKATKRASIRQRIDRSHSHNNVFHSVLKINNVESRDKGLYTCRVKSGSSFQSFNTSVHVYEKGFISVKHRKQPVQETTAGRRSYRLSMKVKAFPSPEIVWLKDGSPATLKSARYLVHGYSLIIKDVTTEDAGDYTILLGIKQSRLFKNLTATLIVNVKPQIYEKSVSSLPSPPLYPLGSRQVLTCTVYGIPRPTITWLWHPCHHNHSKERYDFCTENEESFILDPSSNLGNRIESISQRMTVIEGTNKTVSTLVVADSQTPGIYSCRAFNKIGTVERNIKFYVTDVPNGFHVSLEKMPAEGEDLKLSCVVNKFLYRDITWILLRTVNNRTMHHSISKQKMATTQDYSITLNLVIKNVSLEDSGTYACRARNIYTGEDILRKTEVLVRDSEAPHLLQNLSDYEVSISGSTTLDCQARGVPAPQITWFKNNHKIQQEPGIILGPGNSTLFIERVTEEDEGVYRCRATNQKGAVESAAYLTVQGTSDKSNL

| Substance | percent decrease of ELISA-detectable sFlt-1 when VEGF was co-expressed (mouse sFlt-1-Fc (mouse)) | percent decrease of free sFlt-1 in plasma of co-treated mice (mouse sFlt-1-Fc (mouse)) | pKd (VEGFR-2 (Homo sapiens)) |
| --- | --- | --- | --- |
| VEGF165 (ligand) | 70 to 80% | > 70% |  |
| VEGF (from UniProt P15692) |  |  | 9.12 |
